What is called Kd is the free concentration of one partner at which half of the binding sites on the other are occupied at equilibrium, for simple one-to-one binding. Usually koff stands for the first-order rate constant of dissociation.

Series [1] addresses emerin (Caenorhabditis elegans) (UniProt O01971). Conditions: cited from earlier work.
Series [2] deals with the molecule itself. The series can be described thus: SPR. On the technique in general: Surface plasmon resonance follows binding to a sensor surface in real time, without labels.
Series [3] concerns the molecule itself. Kind of series: SPR; GST–emerin coupled by EDC–NHS to polyethylene glycol/carboxyl sensor slides (Reichert SR7500DC); five increasing concentrations of analyte in PBST at 40 µL/min, 150 s association, 150 s dissociation, no regeneration.

With emerin (from UniProt O01971), in series [1], the Kd was 14 nM.

B1: GST–emerin (full-length emerin fused to GST) (natural protein, UniProt P50402 1-254, looked up)
chain: MDNYADLSDTELTTLLRRYNIPHGPVVGSTRRLYEKKIFEYETQRRRLSPPSSSAASSYSFSDLNSTRGDADMYDLPKKEDALLYQSKGYNDDYYEESYFTTRTYGEPESAGPSRAVRQSVTSFPDADAFHHQVHDDDLLSSSEEECKDRERPMYGRDSAYQSITHYRPVSASRSSLDLSYYPTSSSTSFMSSSSSSSSWLTRRAIRPENRAPGAGLGQDRQVPLWGQLLLFLVFVIVLFFIYHFMQAEEGNPF
notes: emerin, full-length; also called pGST–emerin; source: E. coli BL21, purified (glutathione-Sepharose)
B1 came in with a koff in series [2] of 0.00154 s⁻¹. This molecule also displayed a Kd in series [3] of 1.87 nM.

The values are drawn from publication PMC7504044 (International Journal of Molecular Sciences, 2020).
